Article doi:10.1101/713933

Biological target: portal protein of bacteriophage P23-45 (in situ, in the procapsid) (bacteriophage P23-45 (Thermus thermophilus phage))
Test: cryo-EM structure

portal protein of bacteriophage P23-45 (in situ, in the procapsid) (natural protein)
stoichiometry N: 12 subunits
